The values below come from patent US20240270821A1, “GIP/GLP1/GCG TRI-RECEPTOR AGONISTS AND USES THEREOF” (priority 2023, published 2024).

Starred links: 1 amine or outer side, 2 acyl side, 3 side chain; linkers in the order of their positions; H or OH if unused. Non-standard residues stand in square brackets, D forms with d. Groups on a side chain read outwards from the residue. No end group written: not given here. *: point of attachment. C20 diacid = O=C(O)CCCCCCCCCCCCCCCCCCC(=O)*; Phe(4-CN) = N#Cc1ccc(C[C@H](N)C(=O)O)cc1; αMePhe(2-F) = C[C@](N)(Cc1ccccc1F)C(=O)O; γGlu = O=C(O)[C@H](CCC(=O)[*:2])N[*:1]; αMeL = CC(C)C[C@](C)(N)C(=O)O; AEEA = NCCOCCOCC(=O)O; Aib = CC(C)(N)C(=O)O

Test in all cases: cell-based or functional assay
One test has as its target hGLP-1R (Homo sapiens, UniProt P43220).
Test [1] concerns the target T1, human GIP receptor (human) (UniProt P48546).
T1 sequence (looked up): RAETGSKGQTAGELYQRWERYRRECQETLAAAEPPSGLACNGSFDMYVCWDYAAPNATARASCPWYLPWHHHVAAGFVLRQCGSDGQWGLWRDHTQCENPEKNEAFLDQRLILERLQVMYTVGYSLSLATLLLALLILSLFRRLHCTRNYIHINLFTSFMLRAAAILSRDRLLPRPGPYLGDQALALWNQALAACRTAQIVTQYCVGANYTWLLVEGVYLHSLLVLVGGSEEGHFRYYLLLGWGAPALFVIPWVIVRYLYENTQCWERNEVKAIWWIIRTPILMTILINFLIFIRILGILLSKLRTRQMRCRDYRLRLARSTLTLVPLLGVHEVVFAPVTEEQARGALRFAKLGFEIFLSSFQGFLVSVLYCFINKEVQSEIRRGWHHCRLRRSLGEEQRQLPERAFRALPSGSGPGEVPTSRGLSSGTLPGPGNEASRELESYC

Test [2] has as its target human glucagon receptor (human) (UniProt P47871).

Sequence of human glucagon receptor (human) (P47871 26-477): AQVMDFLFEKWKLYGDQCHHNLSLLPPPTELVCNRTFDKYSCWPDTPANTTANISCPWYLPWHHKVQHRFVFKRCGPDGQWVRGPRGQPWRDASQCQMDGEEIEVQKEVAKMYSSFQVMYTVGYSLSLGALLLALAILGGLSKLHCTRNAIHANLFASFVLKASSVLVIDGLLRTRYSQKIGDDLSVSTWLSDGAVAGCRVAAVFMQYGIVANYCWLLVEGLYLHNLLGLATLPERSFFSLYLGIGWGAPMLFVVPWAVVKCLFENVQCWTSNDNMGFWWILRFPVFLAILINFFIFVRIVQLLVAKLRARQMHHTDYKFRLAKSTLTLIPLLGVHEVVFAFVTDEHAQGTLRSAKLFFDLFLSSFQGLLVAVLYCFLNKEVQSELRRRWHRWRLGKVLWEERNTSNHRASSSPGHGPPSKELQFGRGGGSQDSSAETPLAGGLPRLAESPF
Sequence of hGLP-1R (P43220 24-463): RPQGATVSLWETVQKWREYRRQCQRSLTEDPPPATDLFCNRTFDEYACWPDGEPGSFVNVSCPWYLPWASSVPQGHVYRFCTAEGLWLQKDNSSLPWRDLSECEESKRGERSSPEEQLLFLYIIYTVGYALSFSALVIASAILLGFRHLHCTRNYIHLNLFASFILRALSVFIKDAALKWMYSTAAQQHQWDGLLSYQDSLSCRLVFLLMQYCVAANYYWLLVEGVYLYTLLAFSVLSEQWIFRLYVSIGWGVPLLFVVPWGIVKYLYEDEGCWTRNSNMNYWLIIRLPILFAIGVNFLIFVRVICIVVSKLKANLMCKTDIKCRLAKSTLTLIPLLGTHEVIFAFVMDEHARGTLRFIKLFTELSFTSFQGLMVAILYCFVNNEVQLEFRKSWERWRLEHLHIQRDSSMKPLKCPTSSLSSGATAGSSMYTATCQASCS

As to Y[Aib]QGTFTSDYSK[αMeL]LDKKAQQAFIEYLLAGGPSSGEPPPSGE-NH2 (not fully specified (residue 17)) [Example 344], the Relative cAMP EC50 is 2.56 nM with hGLP-1R, 0.406 nM in test [1] and 9.05 nM in test [2]. Also, the cAMP Rel EC50 (1% HSA) turned out to be 523 nM in the test with hGLP-1R, 70.7 nM in test [1] and 1440 nM in test [2].
Take Y[Aib]QGT[αMePhe(2-F)]TSDYSILLDKQAAKEFIEYLIEGGPSSGAPPPSEG-NH2 (not fully specified (residue 20)) [Example 340]: the values for the Relative cAMP EC50 (in the test with hGLP-1R; in test [1]; in test [2]) were 0.648 nM, 0.189 nM and 2.02 nM, respectively. In addition, the cAMP Rel EC50 (1% HSA) came out at 246 nM in the test with hGLP-1R, 60.4 nM in test [1] and 647 nM in test [2].

B1: Example 343 (peptide)
chain: YXQGTFTSDYSKXLDKKAQXAFVQWLLEGGPSSGEPPPSEG
modifications: not fully specified; synthetic construct; SITE 2: note = 2-Aminoisobutyric Acid; SITE 13: note = alpha-methyl-leucine; SITE 17: note = Lysine is chemically modified through conjugation of the epsilon-amino group of the Lysine side chain with (2-[2-(2-Amino-ethoxy)-ethoxy]-acetyl)-(gamma-Glu)-CO-(CH2) 18-CO2H; SITE 20: n
In the case of B1, the figures for the Relative cAMP EC50 (in the test with hGLP-1R; in test [1]; in test [2]) were 1.31 nM, 0.184 nM and 6.83 nM, respectively. Also, the results for the cAMP Rel EC50 (1% HSA) (in the test with hGLP-1R; in test [1]; in test [2]) were 178 nM, 16.7 nM and 475 nM, respectively.
Take Y[Aib]QGT[αMePhe(2-F)]TSDYSKLLDKIAQKAFIEYLIEGGPSSGAPPPSEG-NH2 (not fully specified (residue 20)) [Example 339]: the Relative cAMP EC50 is 1.06 nM with hGLP-1R, 0.101 nM in test [1] and 6.81 nM in test [2]. Further, the cAMP Rel EC50 (1% HSA) with hGLP-1R came out at 192 nM; in test [1], 28.8 nM; in test [2], 1510 nM.
For the molecule Y[Aib]QGT[αMePhe(2-F)]TSDYSILLDKQAQKAFIEYLLEGGPSSGEPPPSEG-NH2 (not fully specified (residue 20)) [Example 345], the Relative cAMP EC50 with hGLP-1R was found to be 0.658 nM; in test [1], 0.0377 nM; in test [2], 11.3 nM. The figures for the cAMP Rel EC50 (1% HSA) (with hGLP-1R; in test [1]; in test [2]) were 256 nM, 15.3 nM and 3300 nM, respectively.
Consider Y[Aib]QGTFTSDYSI[αMeL]LDKQAAKQFVEWLIA[Aib]GPSSGEPPPGTG-NH2 (not fully specified (residue 20)) [Example 336], for which the Relative cAMP EC50 with hGLP-1R is 0.921 nM; in test [1], 0.306 nM; in test [2], 7.05 nM. Besides, the figures for the cAMP Rel EC50 (1% HSA) (with hGLP-1R; in test [1]; in test [2]) were 227 nM, 64.4 nM and 1740 nM, respectively.
For the molecule Y[Aib]QGT[αMePhe(2-F)]TSDYSILLDKQAAKAFIEYLIEGGPSSGEPPPSEG-NH2 (not fully specified (residue 20)) [Example 331], the results for the Relative cAMP EC50 (in the test with hGLP-1R; in test [1]; in test [2]) were 0.663 nM, 0.148 nM and 1.66 nM, respectively. Besides, the cAMP Rel EC50 (1% HSA) with hGLP-1R was 207 nM; in test [1], 47.5 nM; in test [2], 339 nM.
As for Y[Aib]QGTFTSDYSI[αMeL]LDKQAAK([AEEA-AEEA-γGlu-C20 diacid])QFVEWLIA[Aib]GPSSGEPPPGEG-NH2 [Example 333], the Relative cAMP EC50 in the test with hGLP-1R stood at 0.705 nM; in test [1], 0.265 nM; in test [2], 7.09 nM. Besides, the cAMP Rel EC50 (1% HSA) with hGLP-1R turned out to be 182 nM; in test [1], 36.3 nM; in test [2] it was 1410 nM.
Regarding Y[Aib]QGTFTSDYSK[αMeL]LDKKAQQAFIEYLIAGGPSSGEPPPSGD-NH2 (not fully specified (residue 17)) [Example 337], the values for the Relative cAMP EC50 (in the test with hGLP-1R; in test [1]; in test [2]) were 0.686 nM, 0.332 nM and 5.95 nM, respectively. Also, the cAMP Rel EC50 (1% HSA) amounted to 272 nM with hGLP-1R, 99.1 nM in test [1] and 2950 nM in test [2].
In the case of Y[Aib]QGT[αMePhe(2-F)]TSD[Phe(4-CN)]SILLDKQAQKAFIQYLLEGGPSSGEPPPSEG-NH2 (not fully specified (residue 20)) [Example 341], the Relative cAMP EC50 with hGLP-1R came to 1.62 nM; in test [1], 0.213 nM; in test [2], 10.7 nM. Besides, the results for the cAMP Rel EC50 (1% HSA) (with hGLP-1R; in test [1]; in test [2]) were 395 nM, 49.6 nM and 2930 nM, respectively.
For Y[Aib]QGTFTSDYSI[αMeL]LDKQAAKQFVEWLIA[Aib]GPSSGEPPPGSG-NH2 (not fully specified (residue 20)) [Example 335], the Relative cAMP EC50 in the test with hGLP-1R is 0.461 nM; in test [1] it was 0.292 nM; in test [2], 6.11 nM. The results for the cAMP Rel EC50 (1% HSA) (with hGLP-1R; in test [1]; in test [2]) were 150 nM, 46.7 nM and 1410 nM, respectively.
Regarding Y[Aib]QGTFTSDYSI[αMeL]LDKQAAK([AEEA-AEEA-γGlu-C20 diacid])QFVEWLIAGGPSSGEPPPAEG-NH2 [Example 332], the Relative cAMP EC50 with hGLP-1R worked out at 1.24 nM; in test [1] it was 0.413 nM; in test [2], 11.8 nM. Besides, the cAMP Rel EC50 (1% HSA) stood at 298 nM with hGLP-1R, 78.2 nM in test [1] and 3340 nM in test [2].
Take Y[Aib]QGT[αMePhe(2-F)]TSDYSKLLDKIAQKAFIEYLIEGGPSSGEPPPSEG-NH2 (not fully specified (residue 20)) [Example 330]: the figures for the Relative cAMP EC50 (with hGLP-1R; in test [1]; in test [2]) were 0.63 nM, 0.0783 nM and 3.91 nM, respectively. Moreover, the cAMP Rel EC50 (1% HSA) with hGLP-1R was determined as 91.8 nM; in test [1], 7.33 nM; in test [2], 398 nM.
As for Y[Aib]QGT[αMePhe(2-F)]TSDYSKLLDKIAQKAFIQYLIEGGPSSGEPPPSEG-NH2 (not fully specified (residue 20)) [Example 338], the values for the Relative cAMP EC50 (with hGLP-1R; in test [1]; in test [2]) were 1.22 nM, 0.0733 nM and 4.02 nM, respectively. The cAMP Rel EC50 (1% HSA) in the test with hGLP-1R was found to be 172 nM; in test [1], 10.9 nM; in test [2] it was 659 nM.
For Y[Aib]QGTFTSDYSK[αMeL]LDKKAQQAFVQWLIE[dA]GPSSGEPPPSEG-NH2 (not fully specified (residue 17)) [Example 342], the Relative cAMP EC50 with hGLP-1R turned out to be 0.419 nM; in test [1], 0.347 nM; in test [2] it was 10.2 nM. For the same molecule, the cAMP Rel EC50 (1% HSA) with hGLP-1R was 62 nM; in test [1] it was 71.3 nM; in test [2], 2130 nM.
